Data reported in patent publication US20190211098A1 (Genentech, published 2019).

B3: NPDC1-His (ligand)
chain: GHPDVAACPGSLDCALKRRARCPPGAHACGPCLQPFQEDQQGLCVPRMRRPPGGGRPQPRLEDEIDFLAQELARKESGHSTPPLPKDRQRLPEPATLGFSARGQGLELGLPSTPGTPTPTPHTSLGSPVSSDPVHMSPLEPRGGQGD
notes: not shown: His tag
B5: PILRA R78 variant extracellular domain fused to murine IgG2a Fc (Fc fusion)
chain: QPSGSTGSGPSYLYGVTQPKHLSASMGGSVEIPFSFYYPWELATAPDVRISWRRGHFHRQSFYSTRPPSIHKDYVNRLFLNWTEGQKSGFLRISNLQKQDQSVYFCRVELDTRSSGRQQWQSIEGTKLSITQAVTTTTQRPSSMTTTWRLSSTTTTTGLRVTQGKRRSDSWHISLET
notes: also called PILRA-mFc R78; PILRA-Fc R78; not shown: Fc region of murine IgG2a, C-terminal tag
B7: NPDC1 extracellular domain (1-190 aa) fused to murine IgG2a Fc (Fc fusion)
chain: GHPDVAACPGSLDCALKRRARCPPGAHACGPCLQPFQEDQQGLCVPRMRRPPGGGRPQPRLEDEIDFLAQELARKESGHSTPPLPKDRQRLPEPATLGFSARGQGLELGLPSTPGTPTPTPHTSLGSPVSSDPVHMSPLEPRGGQGDGLALVLILA
notes: also called NPDC1-mFc; NPDC1-mFC; not shown: Fc region of murine IgG2a, C-terminal tag

How the values were obtained:
[1] = biological target: T1, Mouse PILRA extracellular domain fused to human CD3 zeta chain transmembrane and intracellular domains, on … (mouse; human); test: cell-based competitive ELISA: 293-PILRA stable cells, antibody titrated together with a fixed amount of mouse CD99-Fc, bound ligand-Fc detected with anti-human IgG-Fc-HRP
T1 construct: domain: transmembrane and intracellular domains; also called cell surface PILRA
Procedure: After plates were centrifuged at 1200 rpm for 5 min at 4° C., the supernatant was decanted and the mixture of the serially diluted antibody and the ligand-Fc was added. Plates were incubated at 4° C. for 1 h with gentle shaking. Cells were washed with ice-cold 0.1% BSA in PBS, pH 7.4 (wash buffer) by centrifuging the plate at 1200 rpm for 5 min at 4° C. and the cells were resuspended in 200 μl wash buffer. […] Plates were incubated at 4° C. for 1 hr with gentle shaking. Cells were washed with ice-cold wash buffer 4 times. Cells were resuspended in 100 μl of the substrate 3,3′,5,5′-tetramethyl benzidine (Moss Inc., TMBE-1000) and plates were incubated at room temperature for approximately 20 min for color development. The reaction was stopped by adding 1 M phosphoric acid. The absorbance was read at 450 nm using a microplate reader (Multiskan Ascent, Thermo Scientific, Waltham, Mass.). The titration curves were plotted using KaleidaGraph (Synerg Software, Reading, Pa.).

[2] = biological target: T2, Biotinylated mouse PILRA ECD (mouse, UniProt Q2YFS3 32-198, biotinylated (sites not given)); test: competitive ELISA: biotinylated mouse PILRA ECD on Neutravidin plate, antibody titrated together with a fixed amount of mouse C12orf53-Fc, bound ligand-Fc detected with anti-human IgG-Fc-HRP
T2 construct: Captured on Neutravidin plates; also called mPILRA; recombinant PILRA ECD

[3] = biological target: T2, Biotinylated mouse PILRA ECD; test: competitive ELISA: biotinylated mouse PILRA ECD on Neutravidin plate, antibody titrated together with a fixed amount of mouse CD99-Fc, bound ligand-Fc detected with anti-human IgG-Fc-HRP
Procedure: The PILRA ECD-based competitive ELISA was performed as follows. […] Plates were blocked with 0.5% bovine serum albumin, 15 ppm Proclin 300 (Supelco, Bellefonte, Pa.) in PBS (80 μl/well) at room temperature for 1 h and washed. Biotinylated mouse PILRA ECD at 0.25 μg/ml (Genentech, Inc.) in 0.5% bovine serum albumin, 0.05% polysorbate 20, 15 ppm Proclin 300 in PBS, pH 7.4 (assay buffer) was added to the plates. After 1.5 hrs incubation, plates were washed. […] The mixture of the serially diluted antibody and ligand-Fc was added to the plates at 25 μl/well. After a 2 hrs incubation, plates were washed. […] After a 1 hr incubation, plates were washed and the substrate 3,3′,5,5′-tetramethyl benzidine (Moss Inc., TMBE-1000) was added. The reaction was stopped by adding 1 M phosphoric acid. The absorbance was read at 450 nm using a microplate reader (Multiskan Ascent, Thermo Scientific, Waltham, Mass.). The titration curves were plotted using KaleidaGraph (Synerg Software, Reading, Pa.).

[4] = biological target: B5; test: SPR, NPDC1-His binding to PILRA variant
[5] = biological target: T3, HSV-1 glycoprotein B, full length, expressed on transfected 293T cells (human herpes simplex virus type-1, UniProt P06437 31-904); test: flow cytometry: soluble PILRA-mFc variant (50 ug/ml) on HSV-1 gB-transfected 293T cells, FITC anti-mouse IgG2a; MFI as % of G78 (= 100 %)
T3 construct: Construct cloned from EF157316 (strain KOSc); also called HSV-1 gB; human herpesvirus 1 strain KOSc glycoprotein B (EF157316)

[6] = biological target: T4, Full length myc-DDK tagged PIANP, expressed on transfected 293T cells (human, UniProt Q8IYJ0 32-282); test: flow cytometry: soluble PILRA-mFc variant (50 ug/ml) on myc-PIANP-transfected 293T cells, FITC anti-mouse IgG2a; MFI as % of G78 (= 100 %)
T4 construct: Bought construct (Origene Cat. No. RC207868); also called myc-PIANP; C12orf53 (human); not shown: myc-DDK tag of the Origene construct RC207868
T4 sequence: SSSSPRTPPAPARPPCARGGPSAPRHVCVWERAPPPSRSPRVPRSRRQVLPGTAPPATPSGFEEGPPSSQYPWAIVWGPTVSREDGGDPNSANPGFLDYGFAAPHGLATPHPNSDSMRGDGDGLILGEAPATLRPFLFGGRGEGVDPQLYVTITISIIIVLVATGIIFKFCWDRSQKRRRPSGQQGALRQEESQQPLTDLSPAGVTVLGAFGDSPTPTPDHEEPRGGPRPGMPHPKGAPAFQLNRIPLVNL

NPDC1-His [7] = biological target: B3; test: SPR, NPDC1-His binding to PILRA variant
NPDC1-His [8] = biological target: B3; test: SPR, NPDC1-His binding to PILRA variant; remark: listed apart in the source
Murine PILRA-His = biological target: T5, Murine PILRA-His (mouse, UniProt Q2YFS3 32-198); test: array SPR imaging, sandwich format: mAb 2 on the chip, murine PILRA-His 100 nM, then Fc-tagged ligand at 10 ug/ml; response normalised to the PILRA level
T5 construct: not shown: His tag

[9] = biological target: T6, A72 variant of PILRA, full-length, expressed on transfected 293T cells (human, UniProt Q9UKJ1 20-303); test: flow cytometry, soluble NPDC1-mFc 50 ug/ml on PILRA-variant-transfected 293T cells
T6 construct: Point mutation put into the full-length G78 construct by site-directed mutagenesis; also called R72 substituted to alanine
Procedure: (§1) Relative PILRA-ligand binding to PILRA variant transfected cells was performed as follows. […] Double positive cells were gated on the G78 sample and then the gates were overlaid on subsequent samples to maintain the same cell population throughout the experiment.
(§2) Cells were washed and NPDC1 and PILRA cell surface staining was assessed by flow cytometry using anti-mIgG2a-FITC and anti-PILRA antibodies, respectively. […] Binding of the G78 variant of PILRA to NPDC1 was considered 100%.

[10] = biological target: T7, R78 variant of PILRA (AD-protective), full-length, on cells (human, UniProt Q9UKJ1 20-303); test: as above
T7 construct: also called PILRA R78; rs1859788 variant
Procedure: as §1, §2

[11] = biological target: T8, G80 variant of PILRA, full-length, expressed on transfected 293T cells (human, UniProt Q9UKJ1 20-303); test: as above
T8 construct: Point mutation put into the full-length G78 construct by site-directed mutagenesis; also called S80 substituted to glycine
Procedure: as §1, §2

[12] = biological target: T9, A76 variant of PILRA, full-length, expressed on transfected 293T cells (human, UniProt Q9UKJ1 20-303); test: as above
T9 construct: Point mutation put into the full-length G78 construct by site-directed mutagenesis; also called F76 substituted to alanine
Procedure: as §1, §2

[13] = biological target: T10, A141 variant of PILRA (S141A), full-length, expressed on transfected 293T cells (human, UniProt Q9UKJ1 20-303); test: flow cytometry, soluble NPDC1-mIgG2a on PILRA-variant-transfected 293T cells
T10 construct: Point mutation put into the full-length G78 construct by site-directed mutagenesis
Procedure: as §1

[14] = biological target: T7, R78 variant of PILRA (AD-protective), …; test: as above
Procedure: as §1

[15] = biological target: T11, A140 variant of PILRA (Q140A), full-length, expressed on transfected 293T cells (human, UniProt Q9UKJ1 20-303); test: as above
T11 construct: Point mutation put into the full-length G78 construct by site-directed mutagenesis
Procedure: as §1

[16] = biological target: B7; test: SPR (ProteOn XPR36): PILRA-mFc A140 amine-coupled to a GLC chip, 100 nM NPDC1-mFc injected
Procedure: PILRA variant ligand binding Surface Plasmon Resonance (SPR) was performed as follows.
Next, the interaction of PILRA variants and ligands in vitro using surface plasmon resonance (SPR) was investigated.

[17] = biological target: T2, Biotinylated mouse PILRA ECD; test: competitive ELISA: biotinylated mouse PILRA ECD on Neutravidin plate, antibody titrated together with a fixed amount of mouse CD99-Fc
[18] = biological target: T1, Mouse PILRA extracellular domain fused …; test: cell-based competitive ELISA: 293-PILRA stable cells, antibody titrated together with a fixed amount of mouse CD99-Fc

T2 sequence (Q2YFS3 32-198 limits assumed): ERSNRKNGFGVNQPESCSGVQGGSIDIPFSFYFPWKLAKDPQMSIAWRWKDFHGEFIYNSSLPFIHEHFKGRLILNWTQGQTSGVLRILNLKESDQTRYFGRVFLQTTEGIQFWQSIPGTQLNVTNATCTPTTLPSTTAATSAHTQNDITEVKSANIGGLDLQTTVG
T5 sequence (Q2YFS3 32-198 limits assumed): as above
T1 sequence (P20963 other isoform, or with tags, fused parts or gaps limits assumed): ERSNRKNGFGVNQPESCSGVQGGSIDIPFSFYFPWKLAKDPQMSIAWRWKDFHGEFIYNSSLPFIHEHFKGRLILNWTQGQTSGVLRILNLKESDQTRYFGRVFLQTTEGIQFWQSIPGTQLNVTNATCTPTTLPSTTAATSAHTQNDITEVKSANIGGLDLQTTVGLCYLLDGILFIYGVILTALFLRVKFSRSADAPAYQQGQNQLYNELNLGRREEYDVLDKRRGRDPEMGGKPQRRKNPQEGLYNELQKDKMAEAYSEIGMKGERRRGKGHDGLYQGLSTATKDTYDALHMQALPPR

B1: Anti-mouse PILRA antibody 12H1.8 (antibody, mouse IgG2a, kappa, V domains shown)
VH: QVQLQQSGAELVGPGTSVKISCQASGYTFTNYWIGWAKQRPGHGLEWIGDIYPGGGYTNYNKKFKGKATLTADKSSSTAYMQFSSLTSEDSAIYYCSRSRGHGSNFYWYFDVWGTGTTVTVSS
VL: DIVMTQSPKFMSTSVGDRVNITCRASQDVNTAVAWFQQKPGRSPKLLIYSASYRYTGPDHFTGSGSGTDFTFTISSVQAEDLAVYYCQQHYTTPLTFGAGTKLEIKR
For B1, the “IC50 (read off the curve)” value [1] was roughly 8 nM, the “IC50 (read off the curve)” value [2] was roughly 4 nM and the “IC50 (read off the curve)” value [3] was roughly 4 nM.

B2: Anti-mouse PILRA antibody 12C6.9 (antibody, mouse IgG2a, kappa, V domains shown)
VH: QIQLVQSGPELKKPGETVKISCKASGYTFTTYGMSWMKQAPGKGLKWMGWINTYSGVPTYADDFKGRFAFSLETSASTAYLQISNLKDEDTARYFCARRDYGSSQWYFDVWSTGTTVTVSS
VL: DIVMTQSPKFMSISVGDRVSVTCKASQNVGTKVAWYQQKPGQSPKELIYSASYRFSGVPDRFTGSGSGTDFTLTISSVQSEDLAEYFCQQYNTYPLTFGAGTKLEIKR
B2 was tested, and the “IC50 (read off the curve)” value [2] was roughly 3 nM and the “IC50 (read off the curve)” value [3] was roughly 4 nM.

In the case of B3, the Kd [4] is reported as 76.5 nM and the kon [4] is reported as 6800 M⁻¹ s⁻¹.

B4: PILRA G80 variant extracellular domain fused to murine IgG2a Fc (Fc fusion)
chain: QPSGSTGSGPSYLYGVTQPKHLSASMGGSVEIPFSFYYPWELATAPDVRISWRRGHFHGQGFYSTRPPSIHKDYVNRLFLNWTEGQKSGFLRISNLQKQDQSVYFCRVELDTRSSGRQQWQSIEGTKLSITQAVTTTTQRPSSMTTTWRLSSTTTTTGLRVTQGKRRSDSWHISLET
notes: also called PILRA-mFc G80; not shown: Fc region of murine IgG2a, C-terminal tag
With B4 the binding result [5] was “binds”, the binding result [6] was “binds” and the Kd (NPDC1-His [7]) was 30 nM. For the same binder, the kon (NPDC1-His [7]) was 17000 M⁻¹ s⁻¹.

B5 was tested, and the “fold lower affinity than the G78 variant” value (NPDC1-His [8]) was roughly 4.5 fold, the “fold lower kon than the G78 variant” value (NPDC1-His [8]) was roughly 3 fold and the binding result [5] was “binds”. B5: binds [6].

B6: Mouse PILRA ligand C12orf53 fused to human IgG1 Fc (Fc fusion)
chain: SSHRSPPAPARPPCVRGGPSAPRHVCVWERAPPPSRSPRVPRSRRQVVPGTAPPATPSGFEEGPPSSQYPWAIVWGPTVSREDGGDPNSVNPGFLPLDYGFAAPHGLATPHPNSDSMRDDGDGLILGETPATLRPFLFGGRGEGVDP
notes: also called C12orf53-Fc; mouse C12orf53-Fc; not shown: human IgG1 Fc
B6: binds (Murine PILRA-His).

In the case of B7, the “% of G78 variant binding” value [9] is reported as ~20 % of G78 variant, the “% of G78 variant binding” value [10] is reported as ~35 % of G78 variant and the “% of G78 variant binding” value [11] is reported as ~60 % of G78 variant. For the same binder, the “% of G78 variant binding” value [12] was ~20 % of G78 variant, the “% of G78 binding” value [13] was 117 % of G78 and the “% of G78 binding” value [14] was 44 % of G78. For the same binder, the “% of G78 binding” value [15] was 22 % of G78 and the binding result (Murine PILRA-His) was “binds”.

B8: PILRA A140 variant (Q140A) extracellular domain fused to murine IgG2a Fc (Fc fusion)
chain: QPSGSTGSGPSYLYGVTQPKHLSASMGGSVEIPFSFYYPWELATAPDVRISWRRGHFHGQSFYSTRPPSIHKDYVNRLFLNWTEGQKSGFLRISNLQKQDQSVYFCRVELDTRSSGRQQWASIEGTKLSITQAVTTTTQRPSSMTTTWRLSSTTTTTGLRVTQGKRRSDSWHISLET
notes: also called PILRA-mFc A140; PILRA-Fc A140; not shown: Fc region of murine IgG2a, C-terminal tag
B8: binds [16].

B9: Isotype control antibody 12D4 (antibody, mouse IgG2a, kappa, V domains shown)
VH: QVQLQQSGAELVTPGASVKLSCKTSGHTFTSYWMNWVNQKPGQGLEWIGWIYGGSGNTKYNQKFQGKATLTVDTSSSTAYMELRSLTSDDSAVYFCASGTNFFDYWGQGTMVTVSS
VL: DIVMTQSHKFMSTSVGDRVSITCKASQDVSTAVAWYQQKPGQSPKLLIYSASYRYTGVPDRFTGSGSGTDFTFTISSVQAEDLAVYYCQQHYSTPLTFGAGTKLELKR
B9: no binding (tested: 200 nM) [17]; no binding (tested: 200 nM) [18].
